{"source": "the DeepSol protein solubility set"}
{"test": "soluble on expression in E. coli; label from the status in PepcDB or PDB records"}
{"sequence": "MMKNDEQDDVDVVNVPTNIDFQCNLCEYVGKSDRSLSAHKRHRHPRPEGQEDDKKPRGRPKKYEDSPVPLQRVTTKQLLGGRKRPKTIVECVDDSAIRTDKEASRLHGLGIIDEETSLGDYVRRGANYQLMGGSDMNLDGNSMIVGQEVVIDHEEDEENDDSPMLDSIPAGKNLERRKIRKSGRACASIRLSAKNRQISRSSHMRKVHPNEHAERKRNAPGYNSNGTYNCHFPLCQWRGWSRSTRSTHLRKAHPEWRPDDNRVMTVLSCFYCKSSFHTYAQLADHTITHGGLALMISQSFDNKHHFSAWLQQMERVYSVTFERSEFGSDPELQDLHNYVLHCDCVGGRGEQLATDSRAYIDQKHTNFKFSGAYIYQKHNFLKRRHPQLLTRNKNDCCVHLEVREDSEYGPIHVKGTLEHTGHRFGTPLLRMLFEGFTMDHYTTPRSVILMEPLHTNQFQSLREFIEAPSTSTYQNPYFSVDFGDSPEQFSFGYMSDEMQKLWSKYAPGRTITIDSSPLEFGEVDLFQYSVIVTDENYIPKCAMIYVTTDNSRAPHTILRQMKAVEPRPPTIFMVDPSQLWVELIQDLWPTDLDNPESEVTILISEWTLMDYWAAKTEELVKNEFDVFCIVTALRRMLRVEDAHQLYYTIVELFEAFFECGYDGLAEFFDAQLSDMEYFKRWGPLHRTTLTSHAHPTLGASFRILRDWYLNPANMDHDAPRVDQWFSHICQRIEDFNAITNTQTYTLRPLDPPHKFFYTTVEDEEGEEAEHENPFKNPQILMYDDDGDEVVVEEEIIGHEIDGASELQGSELPDEEVIYETYEDYPEYGGHYDLEEEHKMHHNMRLEEEELQQHLHEQQKPEHLSHQTEELGELQDHHHHHHHHLDEDPEATAEGPSEIVEHDDEEEQEDLVDVEMVDDQHEQHEIPAKIPPHRQRLYQKLDPMPVISHELPRSPSRRIRIPTRKIQELDQESVLPPPPRRETTRSVVRSRKRRDRFAELRDCPPEVMRAIAAHAIAYDGRKKEQRPIVYVPRQAKMAMSSTPTAPTPPEDYDGPPGHQMTTILQHQRQAKQEEEEEQWSGEYDDELHEQEHDPATSSPPPSLLPHTGPSEIVHHEEEVHMMLPEEEADLMDDDDQQPCTSASMYR", "soluble on expression in E. coli": "soluble"}
{"sequence": "MMKPIAVSQLSDNFFETISKEWMLVTAGNKNAFNTMTANWGGIGFLWNKPVVYVFIRPERYTFGFMEKSDYFTLSFLGEENKSIHKICGSKSGREVDKIKETGLKPMITDKGNVLFEQGRLSLECRKLYTDVLRKENFLDPSVYEQWYTTHGGLHHVYVAEITSAWIKD", "soluble on expression in E. coli": "not soluble"}
{"sequence": "MMKRNILAVIVPALLVAGTANAAEIYNKDGNKVDLYGKAVGLHYFSKGNGENSYGGNGDMTYARLGFKGETQINSDLTGYGQWEYNFQGNNSEGADAQTGNKTRLAFAGLKYADVGSFDYGRNYGVVYDALGYTDMLPEFGGDTAYSDDFFVGRVGGVATYRNSNFFGLVDGLNFAVQYLGKNERDTARRSNGDGVGGSISYEYEGFGIVGAYGAADRTNLQEAQPLGNGKKAEQWATGLKYDANNIYLAANYGETRNATPITNKFTNTSGFANKTQDVLLVAQYQFDFGLRPSIAYTKSKAKDVEGIGDVDLVNYFEVGATYYFNKNMSTYVDYIINQIDSDNKLGVGSDDTVAVGIVYQF", "soluble on expression in E. coli": "soluble"}
{"sequence": "MMMMRAFIAENVRGIYAFDEDGKLVGKRYFTDKPEKILDGLLKGELVKDLEEFLNELREKGYDEFIFEHPELSRKAKELGFNATTEFPNLAGERLRSNPEEFLGENWFDDYYNVGVALTRMRIQEQSGARDKMVIQAIEALDDVDKVINLLVSRLREWYSLHFPELDEILPRHPQYVAFVKAIGHRDNVDEEKLRELGLSDEKIKKIIEAKEKTMGAWMDETDIAIVQHFAEEIDRLYKLRKELEDYIDKAMDDVAPNLKALVGAKLGARLISLAGGLKELAMLPSSTIQVLGAEKALFRHLRTGAKPPKHGVIYQYPAINRSPWWQRGKIARALAGKLAIAARVDYFSGEYIAEELKKELEARIKEIKEKYPRPPKRRKEERKGRKPWKEKKKKKKKKKGGRR", "soluble on expression in E. coli": "soluble"}
{"sequence": "MMNSTNKLSVIIPLYNAGDDFRTCMESLITQTWTALEIIIINDGSTDNSVEIAKYYAENYPHVRLLHQANAGASVARNRGIEVATGKYVAFVDADDEVYPTMYETLMTMALEDDLDVAQCNADWCFRETGETWQSIPTDRLRSTGVLTGPDWLRMGLSSRRWTHVVWMGVYRRDVIVKNNIKFIAGLHHQDIVWTTEFMFNALRARYTEQSLYKYYLHNTSVSRLHRQGNKNLNYQRHYIKITRLLEKLNRNYADKIMIYPEFHQQITYEALRVCHAVRKEPDILTRQRMIAEIFTSGMYKRLITNVRSVKVGYQALLWSFRLWQWRDKTRSHHRITRSAFNLRLEHHHHHH", "soluble on expression in E. coli": "not soluble"}
{"sequence": "MMQRRAVFGLFLLPLARGQGTCAPTPALTQGPYYLRDVPQREDLREGLPGVPLRLLLRVRDRACRPLQGARVDLWHTDALGRYSGVNAPGTFCRGWQATDERGEVAFLTLFPGWYPSRTPHLHLRVEAGGRVFATQLFFPEEVQRQVYALPPYRERGMPRVNNRQDGLFRADLLLRLEREGEAYRGAFVLTLPG", "soluble on expression in E. coli": "soluble"}
{"sequence": "MMRGGMGNMNNMMKQMQKMQKEMAKAQEELGEKTVEGTAGGGMITVIANGHKQILEVKVKEEVVDPEDIEMLQDLVLAATNDALKKADELSNSTMGKFTKGLNLPGGMF", "soluble on expression in E. coli": "soluble"}
{"sequence": "MMTKNAYAFVVIEESVMVFKRTKDEGLMPIFEGFVPLKEGFLKSFKERCNLEFLENLDLLFLYDKPSAHEIFSLCKELKNSIWDRKLVVALVEALEGFKDWNLSLKIEDKRSNSLGNGTKKLLTNADLGSDYKTIVIDSMKTYHQSQQEKYKRERGETLEVRPTTPPSYGGGSIRISGDKKPDFDEENF", "soluble on expression in E. coli": "not soluble"}
{"sequence": "MMTKYGVVGTGYFGAELARFMSKVEGAKITAIYDPVNAAPIAKELNCVATATMEALCSHPDVDCVIIASPNYLHKAPVIAAAKAGKHVFCEKPIALNYQDCKDMVDACKEAGVTFMAGHVMNFFHGVRHAKALIKAGEIGEVTQVHTKRNGFEDVQDEISWKKIRAKSGGHLYHHIHELDCTLFIMDETPSLVSMAAGNVAHKGEKFGDEDDVVLITLEFESGRFATLQWGSSFHYPEHYVLIEGTTGAILIDMQNTAGYLIKAGKKTHFLVHESQAEDDDRRNGNISSEMDGAIAYGKPGKRTPMWLSSIMKLEMQYLHDVINGLEPGEEFAKLLTGEAATNAIATADAATLSSNEGRKVKLTEILG", "soluble on expression in E. coli": "not soluble"}
{"sequence": "MMTQIIHTEKAPAAIGPYVQAVDLGNLVLTSGQIPVNPATGEVPADIVAQARQSLENVKAIIEKAGLTAADIVKTTVFVKDLNDFAAVNAEYERFFKENNHPNFPARSCVEVARLPKDVGLEIEAIAVRK", "soluble on expression in E. coli": "soluble"}
{"sequence": "MMVWTPVNNKMFETFSYLPPLTDEQIAAQVDYIVANGWIPCLEFAEADKAYVSNESAIRFGSVSCLYYDNRYWTMWKLPMFGCRDPMQVLREIVACTKAFPDAYVRLVAFDNQKQVQIMGFLVQRPKTARDFQPANKRSV", "soluble on expression in E. coli": "soluble"}
{"sequence": "MNAACPDCGLKFQCLCSAVPSFHAPFQLSLLTHDNEWQRETNTGRWLVKSMAECQAYTWSRVAANTELQARLTQPNARSFLVYPSEESVELTDALRSLREDEIAHFIVLDATWQEARKMERKSPWLADVPRVHLTTDHVSAYRLRRNQQPGNLCTLEVGLMLLRHFNAEASAEALEQFYHYSMNAFKADKSGHRWIERLEHHHHHH", "soluble on expression in E. coli": "not soluble"}
{"sequence": "MNAPDKTGTDRRAVPAAVDLDALIRAEHRDPFSILGPHDDGKGGQYVRAYLPAALSVRLLARDDGRELAELHMSDVPGFFVGHLEQPQPYLLKINWAGGEQITEDPYSYGPLLG", "soluble on expression in E. coli": "not soluble"}
{"sequence": "MNASSAPQQQQQQQQPQQGQAPQQQQQGPPQHQYQQQRPFHGRVQNHMRGSGPFGNSNGYGRYTAPRGDQQHHDSTPLSSVSSRRVPLPPTSQHRASSNFNTTPSSTNLYIRGLMPNTNDDLLREMCSKYGNIASTKAIMDKATNNCKGYGFVDFESPQAAAAAVDGLNTEGVQAQMAKLQQQEQDPTNLYIANLPLDFTEQMLETELNKFGMVISTRILRTPDNQSRGVGFARMDSKEKCEVIISALNGGRFDTMSKEGPALLIKQADTGRKSKVGSTSRHPSFQQFSSLGGPTAFLNGQHSMNNPEMLQRMQYPQVYQSYYGYHPAAVYQQHYDVNSLASQMGGMHVGGGNPQANGGGDMYGAHMYGQNAGGQGGQGVGQGGQGGNQQFYNPNNGRNKKYFQPMNPQ", "soluble on expression in E. coli": "not soluble"}
{"sequence": "MNDETPRCPYNSLYKPLNLIKSKPDGCFKHNGQCTYGKNLVESVDDGNSRTPYNSIYEPLSLNKPKPDGRSSNGKKPVDNEYVNLPVLSEEQKLADKLAAKLRKLEVKEPKSKKRGSKERKKKKSEPVESTYESLATIEGSTNYSGPVTTESLESNVKFHHASQTAYIGVYSSADAEAQVKNRGEFALYHLFEVGNGIDHLTATLPFGGLWIPNRSQTLLAQSTRSILQIVRIDSDETRGHLL", "soluble on expression in E. coli": "not soluble"}
{"sequence": "MNDISAPEQYDLQTAALKVPPHSIEAEQAVLGGLMLDNNAWERVLDQVSDGDFYRHDHRLIFRAIAKLADQNSPIDVVTLAEQLDKEGQTSQVGGLGYLSELAKNTPSVANIKAYAQIVRARATLRQLIGISTEIADSAFNPEGRTAEEILDEAERQIFQIAEARPKTGGPVSVNDLLTKAIDRIDTLFNSDNAITGLSTGYTDLDEKTSGLQPADLIIVAGRPSMGKTTFAMNLVENAVLRSDKVVLVYSLEMPGESLIMRMLSSLGRIDQTKVRAGRLDDDDWPRLTSAVNLLNDRKLFIDDTAGISPSEMRARTRRIVREHGEIGMIMIDYLQLMQIPGSSGDNRTNEISEISRSLKALAKEFNCPVIALSQLNRSLEQRPNKRPINSDLRESGAIEQDADVIMFVYRDEVYHPETEHKGIAEIIIGKQRNGPIGTTRLAFIGKYTRFENLAPGSYNFDDD", "soluble on expression in E. coli": "not soluble"}
{"sequence": "MNDITASSSVILDSLLIDDSLITCEVCFEVFNHENRPPKLLPCGHNFCESCIFSLCLHQEYYLLDSIKCPTCRREFTTNTARQAPTNYDLCKILENLFRRKEQNVTVIEVPELVHNLPPPMAEVSSSATKIVTSQQQQQQQPAVATKMPRHHVSKKMKALAKRTEESKHFRCADCQRKISQKNLFRVSRYCVDCTSTSRMTIVCLECCVNHHNGHDLLTEDSLHHNQLKTLSDLRKLRHRILDSSDEFDRRADEIRTSGMDVCGGLSAEKHNLLTYTLASIDDVMRRIEMAPILFPPVLRTIRDEQSHNFSRLEKLSAQLEKSLVSRKNTKPTSLTFIENMNDTTYQGLQRSVQNQSLNKSTLSIRQSRVSLRTDDSLFHESISSLTRLMHQHPMCLQLEFHHSTVSSKDTVTQRKQKIMSCAHATTSMLDMDLTQVSMVPIFADVLLNCFYQLNRLSKNKFVGDKKYRRCDIWKQVQCSYTELFGITAKHFPSHHPERVDILDDLAYLCHLYSDVADQGTVTICLIEAARARASDSSGLTEIEQQRSEERLELIDEHLTECRRLQKLLELRKTSKTKKNGGLKRLFGGCFIAQEKANDSLVY", "soluble on expression in E. coli": "not soluble"}
{"sequence": "MNDNTHTLPPRHLSVAPMLDWTDRHYRYLARQITRNTWLYSEMVNAGAIVYGDKDRFLMFNEGEQPVALQLGGSDPSDLAKAAKAAEAYGYNEVNLNCGCPSPRVQKGSFGACLMNEVGLVADCLNAMQDAVKIPVTVKHRIGVDRQTEYQTVADFVGTLRDKTACKTFIVHARNAWLDGLSPKENRDVPPLKYDYVYRLKQEFPGLEIIINGGITTNEAIAGHLQHVDGVMVGREAYHNPMVMREWDRLFYGDTRSPIEYADLVQRLYTYSQAQIQAGRGTILRHIVRHSLGLMHGLKGARTWRRMLSDATLLKDNDGSLILEAWKEVERANMRE", "soluble on expression in E. coli": "not soluble"}
{"sequence": "MNEDAWNKETYSAWVKRFGTPDTAAKKISKDPSKILSVLHEKLGDVKGKKIMNIMGSNGSKAVALALLGADVTVVDFSKGNMDYALDLAKEADVKIDYILSDILKLPEDKLTADYDIVFAEMGIIHYFIDLKPFIKTINRLLKEGGLFVLRDFHPVSTKLITSRGSTAKVRKHKVTGDYFDTSLEEKDAAFSKYLIDNKEPEKVLLRKWTLGEIVTSVAEGGFKIKKLDEEPNLSCDNFDKGIPKSFTLTSEKLSLEHHHHHH", "soluble on expression in E. coli": "soluble"}
